In PMC7949124, “Metallo-β-lactamase domain-containing protein 2 is S-palmitoylated and exhibits acyl-CoA hydrolase activity” (The Journal of Biological Chemistry, 2020) one finds Km and Vmax data, which are given here for 2 proteins.

Substrate in this data set: CCCCCCCCCCCCCCCC(=O)SCCNC(=O)CCNC(=O)[C@H](O)C(C)(C)COP(=O)(O)OP(=O)(O)OC[C@H]1O[C@@H](n2cnc3c(N)ncnc32)[C@H](O)[C@@H]1OP(=O)(O)O
The experiment in a line: radiometric acyl-CoA hydrolase assay, heptane extraction of [3H]-palmitate. It is filed as biochemical, Homo sapiens. The conditions noted are these: 30 °C, 10 min, 0.05% DDM, labelled compound ([3H] tracer diluted with unlabelled), fitted over 0-10 μM because of substrate inhibition, n = 4. An excerpt:
radiometric acyl-CoA hydrolase assay, heptane extraction of [3H]-palmitate on MBLAC2

B1: MBLAC2 (Homo sapiens) (protein)
chain: MSALEWYAHKSLGDGIFWIQERFYESGNRANIWLVRGSEQDVVIDTGLGLRSLPEYLYSSGLLQDREAKEDAARRPLLAVATHVHFDHSGGLYQFDRVAVHHAEAEALARGDNFETVTWLSDSEVVRTPSPGWRARQFRVQAVQPTLILQDGDVINLGDRQLTVMHMPGHSRGSICLHDKDRKILFSGDVVYDGSLIDWLPYSRISDYVGTCERLIELVDRGLVEKVLPGHFNTFGAERLFRLASNYISKAGICHKVSTFAMRSLASLALRVTNSRTSP
notes: N-terminal hexahistidine tag, C-terminal FLAG; baculovirus/Sf9; zinc metalloenzyme; partly S-palmitoylated at Cys254
Usually Km stands for the concentration of substrate that gives half-maximal velocity. A word on the Vmax: it is the top rate of the reaction or transport when substrate is in excess. On to B1, for which the Km amounted to 1.9 ± 0.6 µM and the maximum rate (Vmax) was 0.103 µmol/min/mg.

B2: MBLAC2 (Homo sapiens; C254A) (protein)
chain: MSALEWYAHKSLGDGIFWIQERFYESGNRANIWLVRGSEQDVVIDTGLGLRSLPEYLYSSGLLQDREAKEDAARRPLLAVATHVHFDHSGGLYQFDRVAVHHAEAEALARGDNFETVTWLSDSEVVRTPSPGWRARQFRVQAVQPTLILQDGDVINLGDRQLTVMHMPGHSRGSICLHDKDRKILFSGDVVYDGSLIDWLPYSRISDYVGTCERLIELVDRGLVEKVLPGHFNTFGAERLFRLASNYISKAGIAHKVSTFAMRSLASLALRVTNSRTSP
notes: as for B1
For the protein B2, the Michaelis-Menten constant (Km) is 2.2 ± 0.7 µM and the maximum rate (Vmax) worked out at 0.0879 µmol/min/mg.
